Results on three proteins are retold here after PMC7596348, “The Iron-Sulfur Flavoprotein DsrL as NAD(P)H:Acceptor Oxidoreductase in Oxidative and Reductive Dissimilatory Sulfur Metabolism” (Frontiers in Microbiology, 2020).

As usually defined, the Km is the substrate concentration at which the rate is half of its maximum. As a reminder, the Vmax is the top rate of the reaction or transport when substrate is in excess. The term kcat denotes the maximal rate divided by the concentration of active sites. By kcat/Km is commonly meant the turnover number divided by the Michaelis constant.

Common to all, as to assay: purified protein
Substrate in series [1]: NC(=O)C1=CN([C@@H]2O[C@H](COP(=O)(O)OP(=O)(O)OC[C@H]3O[C@@H](n4cnc5c(N)ncnc54)[C@H](O)[C@@H]3O)[C@@H](O)[C@H]2O)C=CC1
Format: biochemical, Chlorobaculum tepidum. The note with it: 300 μM MTT, 50 mM potassium phosphate pH 8.0, 40°C.

Substrate in series [2]: NC(=O)c1ccc[n+]([C@@H]2O[C@H](COP(=O)(O)OP(=O)(O)OC[C@H]3O[C@@H](n4cnc5c(N)ncnc54)[C@H](O)[C@@H]3O)[C@@H](O)[C@H]2O)c1
It is filed as biochemical, Chlorobaculum tepidum. The note with it: reduced methylviologen as donor, pH 8.0, 40°C.

Substrate in series [3]: NC(=O)C1=CN([C@@H]2O[C@H](COP(=O)(O)OP(=O)(O)OC[C@H]3O[C@@H](n4cnc5c(N)ncnc54)[C@H](O)[C@@H]3O)[C@@H](O)[C@H]2O)C=CC1
It is filed as biochemical, Allochromatium vinosum. The settings on record: 300 μM MTT, 50 mM potassium phosphate pH 7.0, 30°C.

Substrate in series [4]: NC(=O)C1=CN([C@@H]2O[C@H](COP(=O)(O)OP(=O)(O)OC[C@H]3O[C@@H](n4cnc5c(N)ncnc54)[C@H](OP(=O)(O)O)[C@@H]3O)[C@@H](O)[C@H]2O)C=CC1
It is filed as biochemical, Allochromatium vinosum. The settings on record: 300 μM MTT, 50 mM potassium phosphate pH 7.0, 30°C.

Substrate in series [5]: NC(=O)c1ccc[n+]([C@@H]2O[C@H](COP(=O)(O)OP(=O)(O)OC[C@H]3O[C@@H](n4cnc5c(N)ncnc54)[C@H](O)[C@@H]3O)[C@@H](O)[C@H]2O)c1
Format: biochemical, Allochromatium vinosum. The note with it: reduced methylviologen as donor, pH 7.0, 30°C.

Substrate in series [6]: NC(=O)c1ccc[n+]([C@@H]2O[C@H](COP(=O)(O)OP(=O)(O)OC[C@H]3O[C@@H](n4cnc5c(N)ncnc54)[C@H](OP(=O)(O)O)[C@@H]3O)[C@@H](O)[C@H]2O)c1
Format: biochemical, Allochromatium vinosum. The note with it: reduced methylviologen as donor, pH 7.0, 30°C.

Substrate in series [7]: NC(=O)C1=CN([C@@H]2O[C@H](COP(=O)(O)OP(=O)(O)OC[C@H]3O[C@@H](n4cnc5c(N)ncnc54)[C@H](OP(=O)(O)O)[C@@H]3O)[C@@H](O)[C@H]2O)C=CC1
It is filed as biochemical, Desulfurella amilsii. The settings on record: 300 μM MTT, 50 mM potassium phosphate pH 6.5, 45°C.

Substrate in series [8]: NC(=O)c1ccc[n+]([C@@H]2O[C@H](COP(=O)(O)OP(=O)(O)OC[C@H]3O[C@@H](n4cnc5c(N)ncnc54)[C@H](OP(=O)(O)O)[C@@H]3O)[C@@H](O)[C@H]2O)c1
It is filed as biochemical, Desulfurella amilsii. The settings on record: reduced methylviologen as donor, pH 6.5, 45°C.

B1: CtDsrL-1B (Chlorobaculum tepidum TLS) (protein)
chain: MNAESNPILDFATEYVYPAFSELTGTDKIVAFGDHSHKCPIYVPQTPPCTAECPAGEDIRAINRFLNGTDPSDDPLKSAWETATDTNPFPAVMGRICPHPCQSKCNRGVHDESVAINAVEQVLGNYGIEHNLKLKGPGADTGKRVAIIGGGPAGLSAAYQLRRKGHAVTIYDANEKLGGMVLYGIMGYRVDRKVLEAEIGRIIELGVETKMGVTIGKDITLEQLEAEYDAVFIAVGAQKGRALPVPGFEGTPGATNAIDFLKSYEVLGDDIPVGKHVVVIGDGNVAMDVARLALRLGSQATIISGVPREEMACFENEFDDAKNEGTTMHFLTGTVEVLGGASGVTGLRCTKMVKKEKGEEGWNSPIPFLRYKSNGESFEIEADMVVAAIGQATDLSGLGSAASGPWLKVDRNFRIPGREKLFGGGDALKVDLITTAVGHGRKAAYAIDAFLKGEPMPEEPYREITKPHKQDLLYFLHTPQAKRTSIKPEVVVGNHDELLEALTPEQAITESKRCMSCGFCFDCKQCVSFCPQEAITRFRDNPAGEKVYTDYTKCVGCHLCSLVCPCGYIQMGMGDGL
notes: full length (577 residues), C-terminal Strep-tag (… from primer), E. coli BL21(DE3) ΔiscR; primer-coded N-term MNAESNP, C-term GMGDGL
As to B1, in series [1], the Km was 267.5 ± 20.5 µM, the Vmax is 436 µmol/min/mg, the kcat stood at 460 s⁻¹ and the kcat/Km turned out to be 1.72e+06 M⁻¹ s⁻¹. Besides, in series [2], the Km turned out to be 95.2 ± 9.9 µM, the Vmax was 366 µmol/min/mg, the kcat was 387 s⁻¹ and the kcat/Km turned out to be 4.06e+06 M⁻¹ s⁻¹.

B2: AvDsrL-1A (Allochromatium vinosum DSM 180) (protein)
chain: MATSSDEMKMKPTWRRFEDGEHVWDNLTDKIFNQDRSHKCPTYVHKTPPCQGSCPSGEDIRGWLQIVRGMEKPPQGMDWQEYAFRRSTDANPFPAMMGRVCPAPCQDGCNRNELEDFVGINSVEQFIGDTAIANGYTFEAPELDTGKRIAIVGGGPAGLAAAYQLRRKGHSCTIFEANDGLGGMFRFGIPGYRVPRDKLDAEIQRILDMGRVEVRLKTRIGTDVTVEQLEKDYDAILWAIGCQSGRGLPVPGWEGTPNCVTGVAFLKAFNEGRMKVTAGKVVCVGGGDTSIDVVSVARRLGHVNKSNPNELPETVIRDGYVAHDAASAAAAQGAEVTLTSLFTRDKMTASEHEVDDATREGVTILDGVMPVEVIKDANGRAIGLKVADCTMTDGRPTPVEGTERVLEADLIVSAIGQGGDLSGLEQLDNGRGLMDSDKFYQVPGKAGHFVAGDIIRPHLLTTAIGQAWIAADSIDAYVMQAEHKRRPKVDVHHFNLLDKLTEAHLAPESFVAGQAGDMRGTSDANYAIHNYEDRSGAEVIPHEELFLGHFNYVPRNLRKEEVPSADEVLGHFHERVIGLTEPEAIDEAKRCMSCGLCFECDNCVIFCPQDAVFRVDKGSRTTGRYVDTDYAKCIGCHICADVCPTGYIKMGLGE
notes: full length, C-terminal Strep-tag (… from primer), E. coli BL21(DE3) ΔiscR; primer-coded N-term MATSS, C-term IKMGLGE; FAD and four [4Fe-4S] per monomer; homodimer
With B2, in series [3], the Km is 86.7 ± 17.0 µM, the Vmax was 11.2 µmol/min/mg, the kcat is 13.5 s⁻¹ and the kcat/Km stood at 156000 M⁻¹ s⁻¹. In series [4], the Km is 1667.0 ± 230.2 µM, the Vmax is 4 µmol/min/mg, the kcat is 4.9 s⁻¹ and the kcat/Km is 3000 M⁻¹ s⁻¹. In addition, in series [5], the Km came out at 123.9 ± 10.3 µM, the Vmax was 145 µmol/min/mg, the kcat was determined as 176 s⁻¹ and the kcat/Km amounted to 1.42e+06 M⁻¹ s⁻¹. Moreover, in series [6], the Michaelis-Menten constant (Km) was 2563.0 ± 272.1 µM, the Vmax is 120 µmol/min/mg, the kcat came to 146 s⁻¹ and the kcat/Km turned out to be 57000 M⁻¹ s⁻¹.

B3: DaDsrL-2 (Desulfurella amilsii) (protein)
chain: MAVVKVKKSIKSFSKPSGTEYSSDRPIYVEKRPPCSDTCPNGEQVREFLQYIAQAQDYGRTYEEALEGAFYIIAQTNSMPATTGRICPHPCESRCNRKDKDSAVNINASEMFIGDFAVQNKLPLKKLDETYDAKVAVIGSGPSGLSCAYHLARRGVKVTIFEKEEKPGGLLYYGIPNFRLPKEIVSAEIQRIVDLGVDIKYGKAVGKDIGIEDLKKEFDCIYVATGAYKPEKPNLENIDNIKGVYSGLEFLYHFAKGERIDIGKDVVVVGADTAADAAMISKRWGANVTFAYRRTVPDKETFDKKASREAIDAYEEGITFQFATVPVELVSENGKLTGVKFQKIKVGAKDERGHAAQVENIGEPFLVKADAFIYSVGQKPDYSGLEKLLGQSEGFVKIKDNYQVEGQDKVFAGGDVVGPRLMYVTTAIGHGFAAAVNMIEYLTGKKVIEKDTRKVIESDKMHLDLYEAKPRHERKLRDPIERIKDFEPFMNGLSMEEFIEEAKRCMSCGLCFDCGNCFTYCSHSGVKKLPKGQHYEFHLETCDGCMKCFENCPCGYIEKM
notes: full length, C-terminal Strep-tag (… from primer), E. coli BL21(DE3) ΔiscR; primer-coded N-term MAVVKVK, C-term PCGYIEKM; contains YRR motif
As to B3, in series [7], the Km is 124.5 ± 10.5 µM, the Vmax turned out to be 103 µmol/min/mg, the kcat stood at 110 s⁻¹ and the kcat/Km stood at 870000 M⁻¹ s⁻¹. Further, in series [8], the Km was 22.0 ± 1.9 µM, the Vmax came to 88.8 µmol/min/mg, the kcat amounted to 94.3 s⁻¹ and the kcat/Km was 4.2e+06 M⁻¹ s⁻¹.
